Source: article PMC4121141, “Structural Basis for TatA Oligomerization: An NMR Study of Escherichia coli TatA Dimeric Structure” (PLoS ONE, 2014)
Where no end group is shown, it is not given here. The star is where a group is joined. MTSL = 1-oxy-2,2,5,5-tetramethyl-D-pyrroline-3-methyl methanethiosulfonate spin label, CC1(C)C=C(CS*)C(C)(C)N1[O]

B1: Escherichia coli TatA, wild type, full length (natural protein, UniProt P69428 1-89, looked up)
chain: MGGISIWQLLIIAVIVVLLFGTKKLGSIGSDLGASIKGFKKAMSDDEPKQDKTSQDADFTAKTIADKQADTNQEQAKTEDAKRHDKEQV
notes: TatA, Escherichia coli, 89 amino acids, one transmembrane helix (Ile6-Phe20) and one amphipathic helix (Lys24-Met43); 15N- or 13C/15N-labelled for NMR; also called wt-TatA; wild-type TatA; source: in C12E9 with Superdex 200 gel filtration for blue-native PAGE
B2: MCG-TatA (wild-type E. coli TatA extended at the N-terminus by Met-Cys-Gly) (natural protein, Escherichia coli)
chain: MCGMGGISIWQLLIIAVIVVLLFGTKKLGSIGSDLGASIKGFKKAMSDDEPKQDKTSQDADFTAKTIADKQADTNQEQAKTEDAKRHDKEQV
notes: three additional amino acids Met-Cys-Gly at the N-terminus, numbered M(-3)C(-2)G(-1); TatA, Escherichia coli, wild type, 89 amino acids, Met1 kept after the extension; The single chain of the disulphide-linked dimer d-MCG-TatA; It is used here for the subunit-to-subunit rows of the dimer structure and of the cross-link; source: in C12E9 with Superdex 200 gel filtration for blue-native PAGE; …
B3: TatA_(1–55), truncated E. coli TatA (residues Met1-Gln55) (domain or fragment, Escherichia coli, UniProt P69428 1-55, looked up)
chain: MGGISIWQLLIIAVIVVLLFGTKKLGSIGSDLGASIKGFKKAMSDDEPKQDKTSQ
notes: TatA, Escherichia coli, residues Met1-Gln55; the unstructured C-terminal region removed; 15N-labelled in the relaxation and PRE experiments; source: purified in DPC
B4: TatA_(1–55)-I11C-MTSL (domain or fragment, Escherichia coli, UniProt P69428 1-55, looked up)
chain: MGGISIWQLLC(MTSL)IAVIVVLLFGTKKLGSIGSDLGASIKGFKKAMSDDEPKQDKTSQ
notes: TatA, Escherichia coli, residues Met1-Gln55 with Ile11 mutated to cysteine; source: purified in DPC, unlabeled, tagged with MTSL
B5: TatA_(1–55)-I12C-MTSL (domain or fragment, Escherichia coli, UniProt P69428 1-55, looked up)
chain: MGGISIWQLLIC(MTSL)AVIVVLLFGTKKLGSIGSDLGASIKGFKKAMSDDEPKQDKTSQ
notes: TatA, Escherichia coli, residues Met1-Gln55 with Ile12 mutated to cysteine; source: purified in DPC, unlabeled, tagged with MTSL

Columns and labels:
[1] = biological target: the molecule itself; test: NMR 1H-15N HSQC at decreasing detergent-to-protein ratio; full-length TatA in DPC micelles, 50 mM sodium phosphate pH 7.0, 35°C; DPR lowered from >200; new sets of cross peaks appear
[2] = biological target: the molecule itself; test: solution NMR structure (intermolecular NOEs); disulphide-linked d-MCG-TatA of mixed unlabeled and 13C/15N-labeled MCG-TatA (2:1) in dDPC micelles, DPR about 80, 35°C; 13C/15N-filtered NOESY; 139 inter-subunit NOE restraints; Xplor-NIH
[3] = biological target: the molecule itself; test: NMR backbone 15N relaxation (R2/R1); TatA_(1–55) in DPC micelles, DPR ~70, two sets of peaks in the HSQC, 800 MHz, 35°C; monomer to dimer
[4] = biological target: B3; test: NMR intermolecular paramagnetic relaxation enhancement (PRE); unlabeled MTSL-tagged TatA_(1–55) cysteine mutant mixed at equal molar ratio with 15N-labeled TatA_(1–55) in DPC, 50 mM sodium phosphate pH 7.0, final DPR 40; reference spectrum after reduction with ascorbic acid; conditions: both partners purified

Binder: B1
- binding result [1]: binds

Binder: B2
- binding result [2]: binds

Binder: B3
- stoichiometry N [3]: 2

Binder: B4
- binding result [4]: binds

Binder: B5
- stoichiometry N [4]: 2
